Measured values published in the supplement of paper PMC5998384.

Assays:
[1] = system: HeLa Kyoto; experiment: solubility in G1/S (NP-40 vs SDS abundance) (log2 ratio); higher = more soluble; conditions: cell cycle stage: G1/S
[2] = system: HeLa Kyoto; experiment: melting temperature (median over replicates), in situ; higher = more thermally stable
[3] = system: HeLa Kyoto; experiment: solubility change mitosis vs G1/S (difference of NP-40 vs SDS log2 ratios) (log2 ratio difference); higher = more soluble in mitosis
[4] = system: HeLa Kyoto; experiment: thermal stability score vs G1/S (z-score of summed log2 fold changes over temperatures); higher = more thermally stable than in G1/S
[5] = cell cycle stage: early G1 (4.5 h after nocodazole release)
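Throughout, for melting temperature (median over replicates), in situ: HeLa Kyoto cells synchronized by double thymidine or nocodazole block, proteins quantified by TMT10plex mass spectrometry, three independent biological replicates.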
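Throughout, for solubility change mitosis vs G1/S (difference of NP-40 vs SDS log2 ratios): synchronized HeLa Kyoto cells (double thymidine block for G1/S, nocodazole release for mitosis), protein amounts in NP-40 versus SDS lysates quantified by mass spectrometry, three biological replicates.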
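Throughout, for solubility in G1/S (NP-40 vs SDS abundance): HeLa Kyoto cells arrested at G1/S by double thymidine block, proteins quantified by TMT10plex mass spectrometry in mild NP-40 versus SDS extracts, three biological replicates.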
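Throughout, for thermal stability score vs G1/S (z-score of summed log2 fold changes over temperatures): synchronized HeLa Kyoto cells, proteins quantified by TMT10plex mass spectrometry, three biological replicates, mitosis taken 0.5 h after nocodazole release, G1/S directly after double thymidine block.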

| Sequence | solubility in G1/S (log2) [1] | melting temperature ([2]; cell cycle stage: G1/S) [°C] | melting temperature ([2]; cell cycle stage: mitosis) [°C] | solubility change mitosis (log2) [3] | thermal stability score [4, 5] | thermal stability score ([4]; cell cycle stage: mitosis) |
| --- | --- | --- | --- | --- | --- | --- |
| MEPGRRGAAALLALLCVACALRAGRAQYERYSFRSFPRDELMPLESAYRHALDKYSGEHWAESVGYLEISLRLHRLLRDSEAFCHRNCSAAPQPEPAAGLASYPELRLFGGLLRRAHCLKRCKQGLPAFRQSQPSREVLADFQRREPYKFLQFAYFKANNLPKAIAAAHTFLLKHPDDEMMKRNMAYYKSLPGAEDYIKDLETKSYESLFIRAVRAYNGENWRTSITDMELALPDFFKAFYECLAACEGSREIKDFKDFYLSIADHYVEVLECKIQCEENLTPVIGGYPVEKFVATMYHYLQFAYYKLNDLKNAAPCAVSYLLFDQNDKVMQQNLVYYQYHRDTWGLSDEHFQPRPEAVQFFNVTTLQKELYDFAKENIMDDDEGEVVEYVDDLLELEETS [CRTAP] | 0.35 | 53.3 | 54.8 | -0.0925 | 3.61 | 4.97 |
| MEPPSCIQDEPFPHPLEPEPGVSAQPGPGKPSDKRFRLWYVGGSCLDHRTTLPMLPWLMAEIRRRSQKPEAGGCGAPAAREVILVLSAPFLRCVPAPGAGASGGTSPSATQPNPAVFIFEHKAQHISRFIHNSHDLTYFAYLIKAQPDDPESQMACHVFRATDPSQVPDVISSIRQLSKAAMKEDAKPSKDNEDAFYNSQKFEVLYCGKVTVTHKKAPSSLIDDCMEKFSLHEQQRLKIQGEQRGPDPGEDLADLEVVVPGSPGDCLPEEADGTDTHLGLPAGASQPALTSSRVCFPERILEDSGFDEQQEFRSRCSSVTGVQRRVHEGSQKSQPRRRHASAPSHVQPSDSEKNRTMLFQVGRFEINLISPDTKSVVLEKNFKDISSCSQGIKHVDHFGFICRESPEPGLSQYICYVFQCASESLVDEVMLTLKQAFSTAAALQSAKTQIKLCEACPMHSLHKLCERIEGLYPPRAKLVIQRHLSSLTDNEQADIFERVQKMKPVSDQEENELVILHLRQLCEAKQKTHVHIGEGPSTISNSTIPENATSSGRFKLDILKNKAKRSLTSSLENIFSRGANRMRGRLGSVDSFERSNSLASEKDYSPGDSPPGTPPASPPSSAWQTFPEEDSDSPQFRRRAHTFSHPPSSTKRKLNLQDGRAQGVRSPLLRQSSSEQCSNLSSVRRMYKESNSSSSLPSLHTSFSAPSFTAPSFLKSFYQNSGRLSPQYENEIRQDTASESSDGEGRKRTSSTCSNESLSVGGTSVTPRRISWRQRIFLRVASPMNKSPSAMQQQDGLDRNELLPLSPLSPTMEEEPLVVFLSGEDDPEKIEERKKSKELRSLWRKAIHQQILLLRMEKENQKLEASRDELQSRKVKLDYEEVGACQKEVLITWDKKLLNCRAKIRCDMEDIHTLLKEGVPKSRRGEIWQFLALQYRLRHRLPNKQQPPDISYKELLKQLTAQQHAILVDLGRTFPTHPYFSVQLGPGQLSLFNLLKAYSLLDKEVGYCQGISFVAGVLLLHMSEEQAFEMLKFLMYDLGFRKQYRPDMMSLQIQMYQLSRLLHDYHRDLYNHLEENEISPSLYAAPWFLTLFASQFSLGFVARVFDIIFLQGTEVIFKVALSLLSSQETLIMECESFENIVEFLKNTLPDMNTSEMEKIITQVFEMDISKQLHAYEVEYHVLQDELQESSYSCEDSETLEKLERANSQLKRQNMDLLEKLQVAHTKIQALESNLENLLTRETKMKSLIRTLEQEKMAYQKTVEQLRKLLPADALVNCDLLLRDLNCNPNNKAKIGNKP [TBC1D4] | -0.0729 | 51.1 | 50.5 | -0.0775 | -0.833 | -0.739 |
| MEPRAVGVSKQDIREQIWGYMESQNLADFPRPVHHRIPNFKGSYLACQNIKDLDVFARTQEVKVDPDKPLEGVRLLVLQSKKTLLVPTPRLRTGLFNKITPPPGATKDILRKCATSQGVRNYSVPIGLDSRVLVDLVVVGSVAVSEKGWRIGKGEGYADLEYAMMVSMGAVSKETPVVTIVHDCQVVDIPEELVEEHDITVDYILTPTRVIATGCKRPKPMGITWFKISLEMMEKIPILRSLRAREQQAGKDVTLQGEHQHLPEPGCQQTVPLSVGRRPPDTPGPETNSMEAAPGSPPGEGAPLAADVYVGNLPGDARVSDLKRALRELGSVPLRLTWQGPRRRAFLHYPDSAAAQQAVSCLQGLRLGTDTLRVALARQQRDK [MTHFSD] | -0.0248 | 54.7 | 53.5 | 0.0284 | -0.334 | -0.971 |
| MEPSSKKLTGRLMLAVGGAVLGSLQFGYNTGVINAPQKVIEEFYNQTWVHRYGESILPTTLTTLWSLSVAIFSVGGMIGSFSVGLFVNRFGRRNSMLMMNLLAFVSAVLMGFSKLGKSFEMLILGRFIIGVYCGLTTGFVPMYVGEVSPTALRGALGTLHQLGIVVGILIAQVFGLDSIMGNKDLWPLLLSIIFIPALLQCIVLPFCPESPRFLLINRNEENRAKSVLKKLRGTADVTHDLQEMKEESRQMMREKKVTILELFRSPAYRQPILIAVVLQLSQQLSGINAVFYYSTSIFEKAGVQQPVYATIGSGIVNTAFTVVSLFVVERAGRRTLHLIGLAGMAGCAILMTIALALLEQLPWMSYLSIVAIFGFVAFFEVGPGPIPWFIVAELFSQGPRPAAIAVAGFSNWTSNFIVGMCFQYVEQLCGPYVFIIFTVLLVLFFIFTYFKVPETKGRTFDEIASGFRQGGASQSDKTPEELFHPLGADSQV [SLC2A1] | 0.0648 | 57.3 |  | -0.284 | -1.89 | -3.29 |
| MEPTAPSLTEEDLTEVKKDALENLRVYLCEKIIAERHFDHLRAKKILSREDTEEISCRTSSRKRAGKLLDYLQENPKGLDTLVESIRREKTQNFLIQKITDEVLKLRNIKLEHLKGLKCSSCEPFPDGATNNLSRSNSDESNFSEKLRASTVMYHPEGESSTTPFFSTNSSLNLPVLEVGRTENTIFSSTTLPRPGDPGAPPLPPDLQLEEEGTCANSSEMFLPLRSRTVSRQ [BCL10] | 0.624 | 49.8 | 50.5 | 0.181 | -0.239 | -0.726 |
| MEPVGCCGECRGSSVDPRSTFVLSNLAEVVERVLTFLPAKALLRVACVCRLWRECVRRVLRTHRSVTWISAGLAEAGHLEGHCLVRVVAEELENVRILPHTVLYMADSETFISLEECRGHKRARKRTSMETALALEKLFPKQCQVLGIVTPGIVVTPMGSGSNRPQEIEIGESGFALLFPQIEGIKIQPFHFIKDPKNLTLERHQLTEVGLLDNPELRVVLVFGYNCCKVGASNYLQQVVSTFSDMNIILAGGQVDNLSSLTSEKNPLDIDASGVVGLSFSGHRIQSATVLLNEDVSDEKTAEAAMQRLKAANIPEHNTIGFMFACVGRGFQYYRAKGNVEADAFRKFFPSVPLFGFFGNGEIGCDRIVTGNFILRKCNEVKDDDLFHSYTTIMALIHLGSSK [FBXO22] | -0.097 | 55.1 | 53.1 | -0.22 | -9.18 | -9.79 |
